Patent US20090214495A1 (published 2009)

Target: T1, VEGFR-3 expressed in primary human osteoblasts (human, UniProt P35916 25-1363)
T1 construct: whole, on cells; Endogenous receptor of the cells; also called vascular endothelial growth factor receptor-3
Test: receptor auto-phosphorylation in primary human osteoblasts treated with 25 ng/ml VEGF-D
Protocol: Moreover osteoblasts were treated with VEGF-D and the whole cell lisates were immunoprecipitated with an antibody recognizing VEGFR-3 C-terminus (Santa Cruz Biotechnology) and immunoblotted with anti-phosphotyrosine antibodies (Santa Cruz Biotechnology).
Cells were stimulated for 30 min with 25 ng/ml VEGF-D at 37° C., washed with ice-cold PBS containing 0.1 mM Na₃VO₄, and lysed in 1 ml of lysis buffer (50 mM Hepes, pH 7.4, 150 mM NaCl, 1% Triton-X 100, 1.5 mM MgCl₂, 1 mM EGTA, 10 mM NaH₂PO₄, 100 mM NaF, 10 mM DTT, 1 mM Na₃VO₄, protease inhibitors, Sigma Chemical). Cells lysates were incubated on ice for 10 min, centrifuged at 10,000×g for 15 min, and the supernatants were incubated with anti-VEGFR-3 antibodies.

T1 sequence (P35916 25-1363): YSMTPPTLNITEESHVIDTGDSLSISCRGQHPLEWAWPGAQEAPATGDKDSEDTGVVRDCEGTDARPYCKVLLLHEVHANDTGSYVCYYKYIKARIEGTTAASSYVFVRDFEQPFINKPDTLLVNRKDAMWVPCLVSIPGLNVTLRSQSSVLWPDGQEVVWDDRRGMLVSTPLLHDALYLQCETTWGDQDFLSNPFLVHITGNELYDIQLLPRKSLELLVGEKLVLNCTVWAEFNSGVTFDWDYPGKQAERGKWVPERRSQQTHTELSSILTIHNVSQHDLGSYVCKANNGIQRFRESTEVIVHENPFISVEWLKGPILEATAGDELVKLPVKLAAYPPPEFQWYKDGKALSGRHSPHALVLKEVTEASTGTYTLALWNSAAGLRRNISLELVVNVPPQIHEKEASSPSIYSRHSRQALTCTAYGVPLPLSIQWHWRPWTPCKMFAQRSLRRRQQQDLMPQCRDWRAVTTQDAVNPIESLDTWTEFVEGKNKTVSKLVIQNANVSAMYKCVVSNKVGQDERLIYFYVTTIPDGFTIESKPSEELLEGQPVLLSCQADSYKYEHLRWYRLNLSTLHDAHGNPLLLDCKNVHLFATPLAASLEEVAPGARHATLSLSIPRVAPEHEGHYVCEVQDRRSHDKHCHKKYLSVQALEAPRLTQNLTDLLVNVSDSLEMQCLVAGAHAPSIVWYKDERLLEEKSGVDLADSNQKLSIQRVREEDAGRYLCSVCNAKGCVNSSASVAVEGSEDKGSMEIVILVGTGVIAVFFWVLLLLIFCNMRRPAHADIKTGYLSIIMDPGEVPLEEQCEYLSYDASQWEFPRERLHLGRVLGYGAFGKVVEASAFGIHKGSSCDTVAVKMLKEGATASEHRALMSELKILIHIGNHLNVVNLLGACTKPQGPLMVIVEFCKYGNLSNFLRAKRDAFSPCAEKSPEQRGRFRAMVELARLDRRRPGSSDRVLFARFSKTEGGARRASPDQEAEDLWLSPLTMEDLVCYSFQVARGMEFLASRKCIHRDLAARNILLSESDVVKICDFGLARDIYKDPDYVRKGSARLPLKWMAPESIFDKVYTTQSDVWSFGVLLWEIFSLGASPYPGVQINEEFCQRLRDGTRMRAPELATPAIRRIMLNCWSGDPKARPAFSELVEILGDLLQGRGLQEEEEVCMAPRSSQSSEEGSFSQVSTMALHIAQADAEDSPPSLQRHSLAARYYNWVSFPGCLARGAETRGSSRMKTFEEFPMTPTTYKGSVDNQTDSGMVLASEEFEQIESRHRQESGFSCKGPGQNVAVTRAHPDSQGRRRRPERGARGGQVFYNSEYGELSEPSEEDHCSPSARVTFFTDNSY

- binding result: binds
B1: recombinant human VEGF-D fragment (amino acids 90 to 203), non covalent dimer, expressed in E. coli (ligand, UniProt O43915 90-203, looked up)
chain: AATFYDIETLKVIDEEWQRTQCSPRETCVEVASELGKSTNTFFKPPCVNVFRCGGCCNEESLICMNTSTSYISKQLFEISVPLTSVPELVPVKVANHTGCKCLPTAPRHPYSII
notes: range 90-203; this protein was used for the osteoblast experiments; also called recombinant VEGF-D; VEGF-D fragment comprising aa 93-203; not shown: tag from vector pET-22b used for Ni2+ IMAC / His-TRAP purification
